Laboratory results reported in the PETadex activity labels (doi:10.3389/fbioe.2022.865787).
Positions count from the first letter of the chain named.

Assays:
PET [1] = test: Proxy for plastic degradation [Released monomer concentration (HPLC/LC-MS) (TPA)]; details: pH 8.5
PET [2] = test: Proxy for plastic degradation [Released monomer concentration (HPLC/LC-MS) (MHET)]; details: pH 8.5
PET [3] = test: Proxy for plastic degradation [Released monomer concentration (HPLC/LC-MS) (Total aromatic products)]; details: pH 8.5
p-NP-C10 = details: pH 8; 35 °C
p-NP-C12 = details: pH 8; 35 °C
p-NP-C14 = details: pH 8; 35 °C
p-NP-C16 = details: pH 8; 35 °C
p-NP-C18 = details: pH 8; 35 °C
p-NP-C2 = details: pH 8; 35 °C
p-NP-C4 = details: pH 8; 35 °C
p-NP-C6 = details: pH 8; 35 °C
p-NP-C8 = details: pH 8; 35 °C
pNPB = test: Proxy for plastic degradation [Absorbance @ 405nm]
PET [4] = test: Proxy for plastic degradation [Released monomer concentration (HPLC/LC-MS) (BHET)]; details: pH 8.5

B1: unnamed (protein)
chain: MNFPRASRLMQAAVLGGLMAVSAAATAQTNPYARGPNPTAASLEASAGPFTVRSFTVSRPSGYGAGTVYYPTNAGGTVGAIAIVPGYTARQSSIKWWGPRLASHGFVVITIDTNSTLDQPSSRSSQQMAALRQVASLNGTSSSPIYGKVDTARMGVMGWSMGGGGSLISAANNPSLKAAAPQAPWDSSTNFSSVTVPTLIFACENDSIAPVNSSALPIYDSMSRNAKQFLEINGGSHSCANSGNSNQALIGKKGVAWMKRFMDNDTRYSTFACENPNSTRVSDFRTANCS
Proxy for plastic degradation (PET [1]; 12 h, part of the chain shown): 30 µM
Proxy for plastic degradation (PET [1]; 24 h, part of the chain shown): 37.5 µM
Proxy for plastic degradation (PET [1]; 36 h, part of the chain shown): 42.5 µM
Proxy for plastic degradation (PET [1]; 48 h, part of the chain shown): 47.5 µM
Proxy for plastic degradation (PET [1]; 60 h, part of the chain shown): 50 µM
Proxy for plastic degradation (PET [1]; 72 h, part of the chain shown): 60 µM
Proxy for plastic degradation (PET [1]; 84 h, part of the chain shown): 70 µM
Proxy for plastic degradation (PET [1]; 96 h, part of the chain shown): 80 µM
Proxy for plastic degradation (PET [1]; 108 h, part of the chain shown): 100 µM
Proxy for plastic degradation (PET [2]; 12 h, part of the chain shown): 140 µM
Proxy for plastic degradation (PET [2]; 24 h, part of the chain shown): 150 µM
Proxy for plastic degradation (PET [2]; 36 h, part of the chain shown): 160 µM
Proxy for plastic degradation (PET [2]; 48 h, part of the chain shown): 165 µM
Proxy for plastic degradation (PET [2]; 60 h, part of the chain shown): 155 µM
Proxy for plastic degradation (PET [2]; 72 h, part of the chain shown): 155 µM
Proxy for plastic degradation (PET [2]; 84 h, part of the chain shown): 158 µM
Proxy for plastic degradation (PET [2]; 96 h, part of the chain shown): 165 µM
Proxy for plastic degradation (PET [2]; 108 h, part of the chain shown): 158 µM
Proxy for plastic degradation (PET [3]; 16 h, part of the chain shown): 175 µM
Proxy for plastic degradation (PET [3]; 27.75 h, part of the chain shown): 200 µM
Proxy for plastic degradation (PET [3]; 39.5 h, part of the chain shown): 210 µM
Proxy for plastic degradation (PET [3]; 51.25 h, part of the chain shown): 220 µM
Proxy for plastic degradation (PET [3]; 60 h, part of the chain shown): 215 µM
Proxy for plastic degradation (PET [3]; 74.75 h, part of the chain shown): 225 µM
Proxy for plastic degradation (PET [3]; 86.5 h, part of the chain shown): 235 µM
Proxy for plastic degradation (PET [3]; 98.25 h, part of the chain shown): 240 µM
Proxy for plastic degradation (PET [3]; 110 h, part of the chain shown): 250 µM

B2: unnamed (protein)
chain: MLTHSISPEETDGGRRTPLSRMSRLAARVGVTLSLAAGLTAGVTAPAHASNPYERGPAPTESSVTAVRGYFDTDTDTVSSLVSGFGGGTIYYPTDTSEGTFGGVVIAPGYTASQSSMAWMGHRIASQGFVVFTIDTITRYDQPDSRGRQIEAALDYLVEDSDVADRVDGNRLAVMGHSMGGGGTLAAAENRPELRAAIPLTPWHLQKNWSDVEVPTMIIGAENDTVASVRTHSIPFYESLDEDLERAYLELDGASHFAPNISNTVIAKYSISWLKRFVDEDERYEQFLCPPPDTGLFSDFSDYRDSCPHTT
Km (p-NP-C10): 4930 µM
kcat (p-NP-C10): 69.9 s⁻¹
kcat/Km (p-NP-C10): 14200 M⁻¹ s⁻¹
Km (p-NP-C12): 1680 µM
kcat (p-NP-C12): 30.5 s⁻¹
kcat/Km (p-NP-C12): 18200 M⁻¹ s⁻¹
Km (p-NP-C14): 190 µM
kcat (p-NP-C14): 9.87 s⁻¹
kcat/Km (p-NP-C14): 51900 M⁻¹ s⁻¹
Km (p-NP-C16): 150 µM
kcat (p-NP-C16): 4.79 s⁻¹
kcat/Km (p-NP-C16): 31900 M⁻¹ s⁻¹
Km (p-NP-C18): 450 µM
kcat (p-NP-C18): 14.3 s⁻¹
kcat/Km (p-NP-C18): 31800 M⁻¹ s⁻¹
Km (p-NP-C2): 550 µM
kcat (p-NP-C2): 4.47 s⁻¹
kcat/Km (p-NP-C2): 8130 M⁻¹ s⁻¹
Km (p-NP-C4): 1330 µM
kcat (p-NP-C4): 14.1 s⁻¹
kcat/Km (p-NP-C4): 10600 M⁻¹ s⁻¹
Km (p-NP-C6): 4610 µM
kcat (p-NP-C6): 41.7 s⁻¹
kcat/Km (p-NP-C6): 9050 M⁻¹ s⁻¹
Km (p-NP-C8): 2550 µM
kcat (p-NP-C8): 79.4 s⁻¹
kcat/Km (p-NP-C8): 31100 M⁻¹ s⁻¹
Proxy for plastic degradation (pNPB; pH 8): 100%
Proxy for plastic degradation (pNPB; pH 8, 0 h): 100%
Proxy for plastic degradation (pNPB; pH 8.5): 97.5%
Proxy for plastic degradation (PET [1]; 12 h): 5 µM
Proxy for plastic degradation (PET [1]; 24 h): 12.5 µM
Proxy for plastic degradation (PET [1]; 36 h): 25 µM
Proxy for plastic degradation (PET [1]; 48 h): 50 µM
Proxy for plastic degradation (PET [1]; 60 h): 70 µM
Proxy for plastic degradation (PET [1]; 72 h): 75 µM
Proxy for plastic degradation (PET [1]; 84 h): 120 µM
Proxy for plastic degradation (PET [1]; 96 h): 150 µM
Proxy for plastic degradation (PET [1]; 108 h): 180 µM
Proxy for plastic degradation (PET [4]): 1 µM
Proxy for plastic degradation (PET [2]; 12 h): 5 µM
Proxy for plastic degradation (PET [2]; 24 h): 10 µM
Proxy for plastic degradation (PET [2]; 36 h): 20 µM
Proxy for plastic degradation (PET [2]; 48 h): 70 µM
Proxy for plastic degradation (PET [2]; 60 h): 105 µM
Proxy for plastic degradation (PET [2]; 72 h): 140 µM
Proxy for plastic degradation (PET [2]; 84 h): 135 µM
Proxy for plastic degradation (PET [2]; 96 h): 155 µM
Proxy for plastic degradation (PET [2]; 108 h): 150 µM
Proxy for plastic degradation (PET [3]; 30 °C): 45 µM
Proxy for plastic degradation (PET [3]; 35 °C): 130 µM
Proxy for plastic degradation (PET [3]; 40 °C): 230 µM
Proxy for plastic degradation (PET [3]; 45 °C): 330 µM
Proxy for plastic degradation (PET [3]; 50 °C): 100 µM

B3: unnamed (protein)
chain: B2 chain with D252A
Proxy for plastic degradation (pNPB; pH 8, 0 h): 100%
Proxy for plastic degradation (pNPB; pH 8, 5 °C): 15%
Proxy for plastic degradation (pNPB; pH 8, 10 °C): 17.5%
Proxy for plastic degradation (pNPB; pH 8, 15 °C): 20%
Proxy for plastic degradation (pNPB; pH 8, 20 °C): 32.5%
Proxy for plastic degradation (pNPB; pH 8, 25 °C): 50%
Proxy for plastic degradation (pNPB; pH 8, 30 °C): 90%
Proxy for plastic degradation (pNPB; pH 8, 35 °C): 100%
Proxy for plastic degradation (pNPB; pH 8, 40 °C): 80%
Proxy for plastic degradation (pNPB; pH 8, 45 °C): 70%
Proxy for plastic degradation (pNPB; pH 8, 50 °C): 37.5%
Proxy for plastic degradation (pNPB; pH 8, 55 °C): 25%
Proxy for plastic degradation (pNPB; pH 8, 60 °C): 15%
Proxy for plastic degradation (pNPB; pH 8, 65 °C): 12.5%
Proxy for plastic degradation (pNPB; pH 8, 70 °C): 10%
Proxy for plastic degradation (pNPB; pH 8, 20 h): 75%
Proxy for plastic degradation (pNPB; pH 8, 40 h): 70%
Proxy for plastic degradation (pNPB; pH 8, 60 h): 55%
Proxy for plastic degradation (pNPB; pH 8, 80 h): 40%
Proxy for plastic degradation (pNPB; pH 8, 100 h): 35%
Proxy for plastic degradation (pNPB; pH 8, 120 h): 25%

B4: unnamed (protein)
chain: B2 chain with S301A
Proxy for plastic degradation (pNPB; pH 8, 0 h): 100%
Proxy for plastic degradation (pNPB; pH 8, 5 °C): 42.5%
Proxy for plastic degradation (pNPB; pH 8, 10 °C): 45%
Proxy for plastic degradation (pNPB; pH 8, 15 °C): 47.5%
Proxy for plastic degradation (pNPB; pH 8, 20 °C): 55%
Proxy for plastic degradation (pNPB; pH 8, 25 °C): 75%
Proxy for plastic degradation (pNPB; pH 8, 30 °C): 100%
Proxy for plastic degradation (pNPB; pH 8, 35 °C): 92.5%
Proxy for plastic degradation (pNPB; pH 8, 40 °C): 87.5%
Proxy for plastic degradation (pNPB; pH 8, 45 °C): 77.5%
Proxy for plastic degradation (pNPB; pH 8, 50 °C): 62.5%
Proxy for plastic degradation (pNPB; pH 8, 55 °C): 35%
Proxy for plastic degradation (pNPB; pH 8, 60 °C): 20%
Proxy for plastic degradation (pNPB; pH 8, 65 °C): 17.5%
Proxy for plastic degradation (pNPB; pH 8, 70 °C): 15%
Proxy for plastic degradation (pNPB; pH 8, 20 h): 87.5%
Proxy for plastic degradation (pNPB; pH 8, 40 h): 77.5%
Proxy for plastic degradation (pNPB; pH 8, 60 h): 65%
Proxy for plastic degradation (pNPB; pH 8, 80 h): 62.5%
Proxy for plastic degradation (pNPB; pH 8, 100 h): 60%
Proxy for plastic degradation (pNPB; pH 8, 120 h): 57.5%
